Reference: patent publication US20250003951A1 (OXFORD UNIVERSITY INNOVATION, published 2025)
One block for each binder: values may come before it.

Columns and labels:
Test in all cases: cell-based or functional assay
OX289-284 = biological target: T1, OX289-284 (human)
T1 peptide: GETGMFSLSTIRGHQYATY

OX628-308 = biological target: T2, OX628-308 (human)
T2 peptide: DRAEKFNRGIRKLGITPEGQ

OX628-309 = biological target: T3, OX628-309 (human)
T3 peptide: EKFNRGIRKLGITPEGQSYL

OX885-560 = biological target: T4, OX885-560 (human)
T4 peptide: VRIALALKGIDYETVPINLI

OX885-559 = biological target: T5, OX885-559 (human)
T5 peptide: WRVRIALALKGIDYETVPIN

OX289-009 = biological target: T6, OX289-009 (human)
T6 peptide: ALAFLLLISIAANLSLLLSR

OX289-067 = biological target: T7, OX289-067 (human)
T7 peptide: VATFPVYTMVAIPIVCKD

OX289-040 = biological target: T8, OX289-040 (human)
T8 peptide: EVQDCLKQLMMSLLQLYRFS

B5: OX289 Peptide 9 clone 1 TCR (TCR, V domains shown)
V domain 1: RKEVEQDPGPFNVPEGATVAFNCTYSNSASQSFFWYRQDCRKEPKLLMSVYSSGNEDGRFTAQLNRASQYISLLIRDSKLSDSATYLCVVDFYTSGTYKYIFGTGTRLKVLA
V domain 2: GAVVSQHPSRVICKSGTSVKIECRSLDFQATTMFWYRQFPKQSLMLMATSNEGSKATYEQGVEKDKFLINHASLTLSTLTVTSAHPEDSSFYICSARDREAAGYGYTFGSGTRLTVVE
Clone size (percent repertoire), IFNγ+ sorted T cells after peptide stimulation (OX289-009): 91.1 % of repertoire

B6: OX289 Peptide 67 clone 1 TCR (TCR)
TCR alpha 1: QLLEQSPQFLSIQEGENLTVYCNSSSVFSSLQWYRQEPGEGPVLLVTVVTGGEVKKLKRLTFQFGDARKDSSLHITAAQPGDTGLYLCAGLDDKIIFGKGTRLHILPNIQNPDPAVYQLRD
TCR alpha 2: GIQVEQSPPDLILQEGANSTLRCNFSDSVNNLQWFHQNPWGQLINLFYIPSGTKQNGRLSATTVATERYSLLYISSSQTTDSGVYFCAVAGSNYQLIWGAGTKLIIKPDIQNPDPAVYQLRD
TCR beta: EAGVAQSPRYKIIEKRQSVAFWCNPISGHATLYWYQQILGQGPKLLIQFQNNGVVDDSQLPKDRFSAERLKGVDSTLKIQPAKLEDSAVYLCASSDPISGRGDEQFFGPGTRLTVLEDLKNVFPPEVAVFEPS
Clone size (percent repertoire), IFNγ+ sorted T cells after peptide stimulation (OX289-067): 81.1 % of repertoire

B7: OX289 Peptide 40 clone 1 TCR (TCR, V domains shown)
V domain 1: NSVTQMEGPVTLSEEAFLTINCTYTATGYPSLFWYVQYPGEGLQLLLKATKADDKGSNKGFEATYRKETTSFHLEKGSVQVSDSAVYFCALIPTGGGNKLTFGTGTQLKVEL
V domain 2: AVVSQHPSWVICKSGTSVKIECRSLDFQATTMFWYRQFPKQSLMLMATSNEGSKATYEQGVEKDKFLINHASLTLSTLTVTSAHPEDSSFYICSARLAHSGTNTGELFFGEGSRLTVLE
Clone size (percent repertoire), IFNγ+ sorted T cells after peptide stimulation (OX289-040): 85.2 % of repertoire

Further lines, results first:

Clone size (percent repertoire), IFNγ+ sorted T cells after peptide stimulation (OX289-284): 96 % of repertoire
B1: OX289 Peptide 284 clone 1 TCR (TCR)
TCR alpha: RKEVEQDPGPFNVPEGATVAFNCTYSNSASQSFFWYRQDCRKEPKLLMSVYSSGNEDGRFTAQLNRASQYISLLIRDSKLSDSATYLCVVNKATSGTYKYIFGTGTRLKVLANIQNPDPAVYQLRD
TCR beta 1: AVVSQHPSWVICKSGTSVKIECRSLDFQATTMFWYRQFPKQSLMLMATSNEGSKATYEQGVEKDKFLINHASLTLSTLTVTSAHPEDSSFYICSARDREAAGYGYTFGSGTRLTVVEDLNKVFPPEVAVFEPS
TCR beta 2: AVVSQHPSWVICKSGTSVKIECRSLDFQATTMFWYRQFPKQSLMLMATSNEGSKATYEQGVEKDKFLINHASLTLSTLTVTSAHPEDSSFYICSARLAHSGTNTGELFFGEGSRLTVLEDLKNVFPPEVAVFEPS

Clone size (percent repertoire), IFNγ+ sorted T cells after peptide stimulation (OX628-308): 16.2 % of repertoire | Clone size (percent repertoire), IFNγ+ sorted T cells after peptide stimulation (OX628-309): 16.2 % of repertoire
B2: OX885 Peptides OX628-308/309 clone 2 TCR (TCR, V domains shown)
V domain 1: AQSVTQLDSQVPVFEEAPVELRCNYSSSVSVYLFWYVQYPNQGLQLLLKYLSGSTLVKGINGFEAEFNKSQTSFHLRKPSVHISDTAEYFCAVSGVLTGGGNKLTFGTGTQLKVEL
V domain 2: DAGITQSPRYKITETGRQVTLMCHQTWSHSYMFWYRQDLGHGLRLIYYSAAADITDKGEVPDGYVVSRSKTENFPLTLESATRSQTSVYFCASSEGTVSNQPQHFGDGTRLSILE

Clone size (percent repertoire), IFNγ+ sorted T cells after peptide stimulation (OX885-560): 96.5 % of repertoire | Clone size (percent repertoire), IFNγ+ sorted T cells after peptide stimulation (OX885-559): 96.5 % of repertoire
B3: OX885 Peptides 559/560 clone 1 TCR (TCR, V domains shown)
V domain 1: GIQVEQSPPDLILQEGANSTLRCNFSDSVNNLQWFHQNPWGQLINLFYIPSGTKQNGRLSATTVATERYSLLYISSSQTTDSGVYFCAARRVDNNNDMRFGAGTRLTVKP
V domain 2: DARVTQTPRHKVTEMGQEVTMRCQPILGHNTVFWYRQTMMQGLELLAYFRNRAPLDDSGMPKDRFSAEMPDATLATLKIQPSEPRDSAVYFCASGLAQPQHFGDGTRLSILE

Clone size (percent repertoire), IFNγ+ sorted T cells after peptide stimulation (OX628-308): 76.1 % of repertoire | Clone size (percent repertoire), IFNγ+ sorted T cells after peptide stimulation (OX628-309): 76.1 % of repertoire
B4: OX885 Peptides OX628-308/309 clone 1 TCR (TCR, V domains shown)
V domain 1: KTTQPPSMDCAEGRAANLPCNHSTISGNEYVYWYRQIHSQGPQYIIHGLKNNETNEMASLIITEDRKSSTLILPHATLRDTAVYYCIVRVAVTNAGKSTFGDGTTLTVKP
V domain 2: EAQVTQNPRYLITVTGKKLTVTCSQNMNHEYMSWYRQDPGLGLRQIYYSMNVEVTDKGDVPEGYKVSRKEKRNFPLILESPSPNQTSLYFCASRYYSADTQYFGPGTRLTVLE
